# Data published in patent publication US20190309059A1 (SHANGHAI PHARMAEXPLORER, published 2019).
# B1: c29D9H8 (mouse-human chimeric IL-13 antibody) (antibody, V domains shown)
# VH: QVQLQQSGAELVRPGASVTLSCKASGYTFTDYEMHWVKQTPVHGLEWIGGIDPETGGTASNQKFKGKAILTADKSSSTAYMELRSLTSEDSAVYYCTSGDYFGGGPFAYWGQGTLVTVSA
# VL: DIKMTQSPSSMYASLGERVTITCKASQDINSYLSWFQQKPGKSPKTLIYRANRLVDGVPSRFSGSGSGQDYSLTISSLDYEDMGIYYCLQYDEFPYTFGGGTKLEIK
# Legend:
# [1] = target: his-labeled human IL-13 (immunogen A) (human) (UniProt P35225); assay: FACS blocking, biotin-IL-13 on IL-13Ra1/IL-4Ra HEK293 cells; antibody at 0.27 nM
# [2] = target: his-labeled human IL-13 (immunogen A) (human) (UniProt P35225); assay: FACS blocking, biotin-IL-13 on IL-13Ra2 HEK293 cells; antibody at 166.67 nM
# [3] = target: his-labeled human IL-13 (immunogen A) (human) (UniProt P35225); assay: FACS blocking, biotin-IL-13 on IL-13Ra1/IL-4Ra HEK293 cells; antibody at 6.67 nM
# [4] = target: his-labeled human IL-13R130Q variant (human) (UniProt P35225); assay: ELISA, IL-13R130Q variant; antibody at 0.004 nM
# [5] = target: his-labeled human IL-13 (immunogen A) (human) (UniProt P35225); assay: FACS blocking, biotin-IL-13 on IL-13Ra2 HEK293 cells; antibody at 6.67 nM
# [6] = target: cynomolgus IL-13 (purchased from sino biological) (cynomolgus) (UniProt Q0PW92); assay: ELISA, cynomolgus IL-13; antibody at 2.67 nM
# [7] = target: his-labeled human IL-13 (immunogen A) (human) (UniProt P35225); assay: FACS blocking, biotin-IL-13 on IL-13Ra1/IL-4Ra HEK293 cells; antibody at 1.33 nM
# [8] = target: cynomolgus IL-13 (purchased from sino biological) (cynomolgus) (UniProt Q0PW92); assay: ELISA, cynomolgus IL-13; antibody at 0.004 nM
# [9] = target: his-labeled human IL-13R130Q variant (human) (UniProt P35225); assay: ELISA, IL-13R130Q variant; antibody at 0.11 nM
# [10] = target: his-labeled human IL-13R130Q variant (human) (UniProt P35225); assay: ELISA, IL-13R130Q variant; antibody at 13.33 nM
# [11] = target: his-labeled human IL-13 (immunogen A) (human) (UniProt P35225); assay: FACS blocking, biotin-IL-13 on IL-13Ra1/IL-4Ra HEK293 cells; antibody at 33.33 nM
# [12] = target: his-labeled human IL-13 (immunogen A) (human) (UniProt P35225); assay: FACS blocking, biotin-IL-13 on IL-13Ra1/IL-4Ra HEK293 cells; antibody at 0.05 nM
# [13] = target: cynomolgus IL-13 (purchased from sino biological) (cynomolgus) (UniProt Q0PW92); assay: ELISA, cynomolgus IL-13; antibody at 66.7 nM
# [14] = target: cynomolgus IL-13 (purchased from sino biological) (cynomolgus) (UniProt Q0PW92); assay: ELISA, cynomolgus IL-13; antibody at 0.021 nM
# [15] = target: his-labeled human IL-13 (immunogen A) (human) (UniProt P35225); assay: FACS blocking, biotin-IL-13 on IL-13Ra1/IL-4Ra HEK293 cells; antibody at 0.002 nM
# [16] = target: his-labeled human IL-13 (immunogen A) (human) (UniProt P35225); assay: FACS blocking, biotin-IL-13 on IL-13Ra2 HEK293 cells; antibody at 0.002 nM
# [17] = target: his-labeled human IL-13 (immunogen A) (human) (UniProt P35225); assay: FACS blocking, biotin-IL-13 on IL-13Ra2 HEK293 cells; antibody at 0.05 nM
# [18] = target: his-labeled human IL-13 (immunogen A) (human) (UniProt P35225); assay: FACS blocking, biotin-IL-13 on IL-13Ra2 HEK293 cells; antibody at 33.33 nM
# [19] = target: his-labeled human IL-13R130Q variant (human) (UniProt P35225); assay: ELISA, IL-13R130Q variant; antibody at 2.67 nM
# [20] = target: cynomolgus IL-13 (purchased from sino biological) (cynomolgus) (UniProt Q0PW92); assay: ELISA, cynomolgus IL-13; antibody at 0.53 nM
# [21] = target: his-labeled human IL-13 (immunogen A) (human) (UniProt P35225); assay: FACS blocking, biotin-IL-13 on IL-13Ra2 HEK293 cells; antibody at 1.33 nM
# [22] = target: his-labeled human IL-13 (immunogen A) (human) (UniProt P35225); assay: FACS blocking, biotin-IL-13 on IL-13Ra1/IL-4Ra HEK293 cells; antibody at 0.01 nM
# [23] = target: his-labeled human IL-13 (immunogen A) (human) (UniProt P35225); assay: cell-based or functional assay
# [24] = target: his-labeled human IL-13 (immunogen A) (human) (UniProt P35225); assay: FACS blocking, biotin-IL-13 on IL-13Ra2 HEK293 cells; antibody at 0.01 nM
# [25] = target: his-labeled human IL-13 (immunogen A) (human) (UniProt P35225); assay: FACS blocking, biotin-IL-13 on IL-13Ra2 HEK293 cells; antibody at 0.27 nM
# [26] = target: his-labeled human IL-13 (immunogen A) (human) (UniProt P35225); assay: FACS blocking, biotin-IL-13 on IL-13Ra1/IL-4Ra HEK293 cells; antibody at 166.67 nM
# cynomolgus IL-13 (purchased from sino biological) (cynomolgus), sequence (Q0PW92 entry or part of it): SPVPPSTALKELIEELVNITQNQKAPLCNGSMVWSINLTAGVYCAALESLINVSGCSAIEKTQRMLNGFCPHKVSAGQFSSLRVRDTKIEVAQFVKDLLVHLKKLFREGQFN
# his-labeled human IL-13R130Q variant (human), sequence (P35225 other isoform, or with tags, fused parts or gaps mutant): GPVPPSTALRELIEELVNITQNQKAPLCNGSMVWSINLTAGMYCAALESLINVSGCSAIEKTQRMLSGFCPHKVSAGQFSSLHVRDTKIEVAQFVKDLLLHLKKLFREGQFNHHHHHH
binder,measurement,setting,value
B1,mean fluorescence intensity,[1],72.6
same,mean fluorescence intensity,[2],20.4
same,mean fluorescence intensity,[3],28.3
same,OD450 nm,[4],0.2
same,mean fluorescence intensity,[5],25
same,OD450 nm,[6],3.2
same,mean fluorescence intensity,[7],45.7
same,OD450 nm,[8],0.17
same,OD450 nm,[9],1.23
same,OD450 nm,[10],2.99
same,mean fluorescence intensity,[11],20.2
same,mean fluorescence intensity,[12],90.3
same,OD450 nm,[13],3.6
same,OD450 nm,[14],0.408
same,mean fluorescence intensity,[15],105
same,mean fluorescence intensity,[16],101
same,mean fluorescence intensity,[17],81.6
same,mean fluorescence intensity,[18],22.8
same,OD450 nm,[19],2.92
same,OD450 nm,[20],2.68
same,mean fluorescence intensity,[21],34.6
same,mean fluorescence intensity,[22],101
same,"Periostin (pg/mL), MRCS cells + IL-13 5 ng/mL; antibody at 0.0002 nM",[23],6190 pg/mL
same,"Periostin (pg/mL), MRCS cells + IL-13 5 ng/mL; antibody at 0.001 nM",[23],4630 pg/mL
same,"Periostin (pg/mL), MRCS cells + IL-13 5 ng/mL; antibody at 0.004 nM",[23],3480 pg/mL
same,"Periostin (pg/mL), MRCS cells + IL-13 5 ng/mL; antibody at 0.021 nM",[23],3570 pg/mL
same,"Periostin (pg/mL), MRCS cells + IL-13 5 ng/mL; antibody at 0.11 nM",[23],3220 pg/mL
same,"Periostin (pg/mL), MRCS cells + IL-13 5 ng/mL; antibody at 0.53 nM",[23],1450 pg/mL
same,"Periostin (pg/mL), MRCS cells + IL-13 5 ng/mL; antibody at 2.67 nM",[23],927 pg/mL
same,"Periostin (pg/mL), MRCS cells + IL-13 5 ng/mL; antibody at 13.3 nM",[23],1150 pg/mL
same,"TARC (pg/mL), A549 cells + IL-13 + TNFα; antibody at 0.001 nM",[23],3160 pg/mL
same,"TARC (pg/mL), A549 cells + IL-13 + TNFα; antibody at 0.004 nM",[23],2950 pg/mL
same,"TARC (pg/mL), A549 cells + IL-13 + TNFα; antibody at 0.021 nM",[23],2730 pg/mL
same,"TARC (pg/mL), A549 cells + IL-13 + TNFα; antibody at 0.11 nM",[23],1850 pg/mL
same,"TARC (pg/mL), A549 cells + IL-13 + TNFα; antibody at 0.53 nM",[23],655 pg/mL
same,"TARC (pg/mL), A549 cells + IL-13 + TNFα; antibody at 2.67 nM",[23],159 pg/mL
same,"TARC (pg/mL), A549 cells + IL-13 + TNFα; antibody at 13.3 nM",[23],50 pg/mL
same,"TARC (pg/mL), A549 cells + IL-13 + TNFα; antibody at 66.7 nM",[23],36 pg/mL
same,"VCAM-1 fluorescence intensity, HUVEC + IL-13 0.5 ng/mL + TNFα; antibody at 0.0002 nM",[23],364
same,"VCAM-1 fluorescence intensity, HUVEC + IL-13 0.5 ng/mL + TNFα; antibody at 0.001 nM",[23],373
same,"VCAM-1 fluorescence intensity, HUVEC + IL-13 0.5 ng/mL + TNFα; antibody at 0.004 nM",[23],393
same,"VCAM-1 fluorescence intensity, HUVEC + IL-13 0.5 ng/mL + TNFα; antibody at 0.021 nM",[23],409
same,"VCAM-1 fluorescence intensity, HUVEC + IL-13 0.5 ng/mL + TNFα; antibody at 0.11 nM",[23],251
same,"VCAM-1 fluorescence intensity, HUVEC + IL-13 0.5 ng/mL + TNFα; antibody at 0.53 nM",[23],265
same,"VCAM-1 fluorescence intensity, HUVEC + IL-13 0.5 ng/mL + TNFα; antibody at 2.67 nM",[23],246
same,"VCAM-1 fluorescence intensity, HUVEC + IL-13 0.5 ng/mL + TNFα; antibody at 13.3 nM",[23],186
same,mean fluorescence intensity,[24],95.9
same,mean fluorescence intensity,[25],56.3
same,mean fluorescence intensity,[26],20
